Reference: paper PMC10397247

Tests used:
Assay in all cases: two-hybrid library CCmax;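 further: natural log of median RNA to DNA barcode read ratio; higher means stronger binding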
4H1513-AA = target: T1, 4H1513-AA
T1 chain: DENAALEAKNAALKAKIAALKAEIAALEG

4H1594-AA = target: T2, 4H1594-AA; conditions: mean of both orientations
T2 chain: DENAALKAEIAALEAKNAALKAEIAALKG

4H1629-AA = target: T3, 4H1629-AA; conditions: mean of both orientations
T3 chain: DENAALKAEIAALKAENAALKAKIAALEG

4H1845-AA = target: T4, 4H1845-AA; conditions: mean of both orientations
T4 chain: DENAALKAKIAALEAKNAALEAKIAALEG

4H1874-AA = target: T5, 4H1874-AA; conditions: mean of both orientations
T5 chain: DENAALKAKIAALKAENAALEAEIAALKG

4H2198-AA = target: T6, 4H2198-AA; conditions: mean of both orientations
T6 chain: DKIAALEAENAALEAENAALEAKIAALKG

4H2553-AA = target: T7, 4H2553-AA; conditions: mean of both orientations
T7 chain: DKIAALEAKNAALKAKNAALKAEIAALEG

4H2611-AA = target: T8, 4H2611-AA
T8 chain: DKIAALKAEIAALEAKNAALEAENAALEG

4H2620-AA = target: T9, 4H2620-AA; conditions: mean of both orientations
T9 chain: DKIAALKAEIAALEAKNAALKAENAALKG

4H2648-AA = target: T10, 4H2648-AA; conditions: mean of both orientations
T10 chain: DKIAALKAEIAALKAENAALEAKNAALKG

4H2907-AA = target: T11, 4H2907-AA; conditions: mean of both orientations
T11 chain: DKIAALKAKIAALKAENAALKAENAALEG

4H2944-AA = target: T12, 4H2944-AA; conditions: mean of both orientations
T12 chain: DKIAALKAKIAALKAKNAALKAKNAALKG

4H3056-AA = target: T13, 4H3056-AA; conditions: mean of both orientations
T13 chain: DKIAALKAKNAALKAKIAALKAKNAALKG

4H3133-AA = target: T14, 4H3133-AA; conditions: mean of both orientations
T14 chain: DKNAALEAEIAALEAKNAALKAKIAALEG

4H3162-AA = target: T15, 4H3162-AA; conditions: mean of both orientations
T15 chain: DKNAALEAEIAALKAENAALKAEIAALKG

4H32-AA = target: T16, 4H32-AA; conditions: mean of both orientations
T16 chain: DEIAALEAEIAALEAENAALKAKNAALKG

4H3378-AA = target: T17, 4H3378-AA; conditions: mean of both orientations
T17 chain: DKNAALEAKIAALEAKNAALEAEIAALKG

4H340-AA = target: T18, 4H340-AA; conditions: mean of both orientations
T18 chain: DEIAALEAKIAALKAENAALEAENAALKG

4H3413-AA = target: T19, 4H3413-AA; conditions: mean of both orientations
T19 chain: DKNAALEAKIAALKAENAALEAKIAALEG

4H3588-AA = target: T20, 4H3588-AA; conditions: mean of both orientations
T20 chain: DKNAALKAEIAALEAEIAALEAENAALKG

4H3606-AA = target: T21, 4H3606-AA; conditions: mean of both orientations
T21 chain: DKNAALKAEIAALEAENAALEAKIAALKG

4H3627-AA = target: T22, 4H3627-AA; conditions: mean of both orientations
T22 chain: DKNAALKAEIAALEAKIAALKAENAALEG

4H3631-AA = target: T23, 4H3631-AA; conditions: mean of both orientations
T23 chain: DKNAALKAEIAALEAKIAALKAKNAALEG

4H3697-AA = target: T24, 4H3697-AA; conditions: mean of both orientations
T24 chain: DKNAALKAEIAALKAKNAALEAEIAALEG

4H3718-AA = target: T25, 4H3718-AA; conditions: mean of both orientations
T25 chain: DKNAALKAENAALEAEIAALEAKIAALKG

4H384-AA = target: T26, 4H384-AA; conditions: mean of both orientations
T26 chain: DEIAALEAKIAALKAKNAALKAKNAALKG

4H3865-AA = target: T27, 4H3865-AA; conditions: mean of both orientations
T27 chain: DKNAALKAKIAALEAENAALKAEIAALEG

4H697-AA = target: T28, 4H697-AA; conditions: mean of both orientations
T28 chain: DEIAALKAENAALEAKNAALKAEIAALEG

4H982-AA = target: T29, 4H982-AA; conditions: mean of both orientations
T29 chain: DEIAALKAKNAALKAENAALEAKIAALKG

Q3-AA = target: T30, Q3-AA; conditions: mean of both orientations
T30 chain: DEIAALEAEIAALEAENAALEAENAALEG

Q7-AA = target: T31, Q7-AA; conditions: mean of both orientations
T31 chain: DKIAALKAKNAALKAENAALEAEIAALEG

Q8-AA = target: T32, Q8-AA; conditions: mean of both orientations
T32 chain: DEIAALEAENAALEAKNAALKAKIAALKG

interaction score (4H1513-AA): -1.35 | interaction score (4H1594-AA): -1.55 | interaction score (4H1629-AA): -1.62 | interaction score (4H1845-AA): -1.62 | interaction score (4H1874-AA): -1.02 | interaction score (4H2198-AA): 1.63 | interaction score (4H2553-AA): -1.64 | interaction score (4H2611-AA): -1.21 | interaction score (4H2620-AA): -1.68 | interaction score (4H2648-AA): -1.14 | interaction score (4H2907-AA): -1.65 | interaction score (4H2944-AA): -1.86 | interaction score (4H3056-AA): -1.71 | interaction score (4H3133-AA): -1.2 | interaction score (4H3162-AA): -1.99 | interaction score (4H32-AA): -0.712 | interaction score (4H3378-AA): -1.77 | interaction score (4H340-AA): -1.57 | interaction score (4H3413-AA): -1.28 | interaction score (4H3588-AA): -0.131 | interaction score (4H3606-AA): 0.638 | interaction score (4H3627-AA): -0.0527 | interaction score (4H3631-AA): 0.267 | interaction score (4H3697-AA): -2.13 | interaction score (4H3718-AA): 1.82 | interaction score (4H384-AA): -1.22 | interaction score (4H3865-AA): -1.9 | interaction score (4H697-AA): -1.68 | interaction score (4H982-AA): -1 | interaction score (Q3-AA): -1.16 | interaction score (Q7-AA): -0.188 | interaction score (Q8-AA): -1.06
B1: 4H1513-AA (peptide)
chain: DENAALEAKNAALKAKIAALKAEIAALEG
